# Measurements from patent US20240116997A1 (BRIGHT PEAK THERAPEUTICS, published 2024).
# T1: IL-18 receptor (IL-18Rαβ) on cells (UniProt Q13478 19-541; O95256 20-599, limits assumed)
# T1 sequence (looked up) 1: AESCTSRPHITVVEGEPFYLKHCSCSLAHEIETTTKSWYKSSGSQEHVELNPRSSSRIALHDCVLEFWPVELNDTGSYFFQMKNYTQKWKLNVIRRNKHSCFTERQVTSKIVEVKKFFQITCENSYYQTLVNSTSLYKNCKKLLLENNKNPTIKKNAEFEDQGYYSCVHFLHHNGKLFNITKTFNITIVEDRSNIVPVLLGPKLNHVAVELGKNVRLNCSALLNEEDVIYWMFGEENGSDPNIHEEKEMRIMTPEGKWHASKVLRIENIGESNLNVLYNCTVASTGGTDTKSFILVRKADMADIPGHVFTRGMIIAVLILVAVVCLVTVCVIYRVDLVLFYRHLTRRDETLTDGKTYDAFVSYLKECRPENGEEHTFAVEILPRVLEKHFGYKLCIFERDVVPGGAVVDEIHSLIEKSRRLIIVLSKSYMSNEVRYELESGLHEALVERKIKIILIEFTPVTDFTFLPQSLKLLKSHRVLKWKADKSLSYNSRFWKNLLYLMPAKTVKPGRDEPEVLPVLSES
# T1 sequence (looked up) 2: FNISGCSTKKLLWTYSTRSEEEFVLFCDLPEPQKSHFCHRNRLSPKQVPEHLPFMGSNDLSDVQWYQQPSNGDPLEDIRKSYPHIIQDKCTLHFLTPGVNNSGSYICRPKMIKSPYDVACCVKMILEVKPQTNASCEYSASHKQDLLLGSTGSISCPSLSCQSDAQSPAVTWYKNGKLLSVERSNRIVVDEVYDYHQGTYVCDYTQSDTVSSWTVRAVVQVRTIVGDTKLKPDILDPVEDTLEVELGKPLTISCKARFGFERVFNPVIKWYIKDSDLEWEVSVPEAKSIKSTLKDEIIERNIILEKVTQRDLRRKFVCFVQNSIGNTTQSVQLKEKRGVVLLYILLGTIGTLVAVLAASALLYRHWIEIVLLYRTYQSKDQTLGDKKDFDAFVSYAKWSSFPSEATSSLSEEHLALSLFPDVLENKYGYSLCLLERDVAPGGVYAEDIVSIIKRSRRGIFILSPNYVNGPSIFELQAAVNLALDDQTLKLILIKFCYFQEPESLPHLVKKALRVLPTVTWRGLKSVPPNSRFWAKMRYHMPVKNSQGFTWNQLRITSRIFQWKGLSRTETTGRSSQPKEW
# Target: T1, IL-18 receptor (IL-18Rαβ) on cells
# Experiment: cell-based or functional assay
row,Binder,"EC50 (nM), IFNγ induction, NK-92 cells [nM]"
1,"IL-18 polypeptide SEQ ID NO: 43 (E06K, K53A, S55A, Y01G) (ligand) GFGKLKSKLSVIRNLNDQVLFIDQGNRPLFEDMTDSDCRDNAPRTIFIISMYADAQPRGMAVTISVKCEKISTLSCENKIISFKEMNPPDNIKDTKSDIIFFQRSVPGHDNKMQFESSSYEGYFLACEKERDLFKLILKKEDELGDRSIMFTVQNED",6.12
2,"IL-18 polypeptide SEQ ID NO: 45 (E06K, K53A, S55A, D54A) (ligand) YFGKLKSKLSVIRNLNDQVLFIDQGNRPLFEDMTDSDCRDNAPRTIFIISMYAAAQPRGMAVTISVKCEKISTLSCENKIISFKEMNPPDNIKDTKSDIIFFQRSVPGHDNKMQFESSSYEGYFLACEKERDLFKLILKKEDELGDRSIMFTVQNED",30
3,"IL-18 polypeptide SEQ ID NO: 48 (C38S, C68S, C76S, C127S, K70C) (ligand) YFGKLESKLSVIRNLNDQVLFIDQGNRPLFEDMTDSDSRDNAPRTIFIISMYKDSQPRGMAVTISVKSECISTLSSENKIISFKEMNPPDNIKDTKSDIIFFQRSVPGHDNKMQFESSSYEGYFLASEKERDLFKLILKKEDELGDRSIMFTVQNED",0.488
4,"IL-18 polypeptide SEQ ID NO: 55 (K53A, T63A, C38S, C68S, C76S, C127S, K70C) (ligand) YFGKLESKLSVIRNLNDQVLFIDQGNRPLFEDMTDSDSRDNAPRTIFIISMYADSQPRGMAVAISVKSECISTLSSENKIISFKEMNPPDNIKDTKSDIIFFQRSVPGHDNKMQFESSSYEGYFLASEKERDLFKLILKKEDELGDRSIMFTVQNED",17.2
5,"IL-18 polypeptide SEQ ID NO: 49 (E06K, K53A, S55A, C38S, C68S, C76S, C127S, K70C) (ligand) YFGKLKSKLSVIRNLNDQVLFIDQGNRPLFEDMTDSDSRDNAPRTIFIISMYADAQPRGMAVTISVKSECISTLSSENKIISFKEMNPPDNIKDTKSDIIFFQRSVPGHDNKMQFESSSYEGYFLASEKERDLFKLILKKEDELGDRSIMFTVQNED",58.5
6,"IL-18 polypeptide SEQ ID NO: 44 (E06K, K53A, S55A, F02A) (ligand) YAGKLKSKLSVIRNLNDQVLFIDQGNRPLFEDMTDSDCRDNAPRTIFIISMYADAQPRGMAVTISVKCEKISTLSCENKIISFKEMNPPDNIKDTKSDIIFFQRSVPGHDNKMQFESSSYEGYFLACEKERDLFKLILKKEDELGDRSIMFTVQNED",> 1000
7,"IL-18 polypeptide SEQ ID NO: 46 (E06K, K53A, S55A, M51G) (ligand) YFGKLKSKLSVIRNLNDQVLFIDQGNRPLFEDMTDSDCRDNAPRTIFIISGYADAQPRGMAVTISVKCEKISTLSCENKIISFKEMNPPDNIKDTKSDIIFFQRSVPGHDNKMQFESSSYEGYFLACEKERDLFKLILKKEDELGDRSIMFTVQNED",7.4
8,"IL-18 polypeptide SEQ ID NO: 47 (C38S, C68S, C76S, C127S) (ligand) YFGKLESKLSVIRNLNDQVLFIDQGNRPLFEDMTDSDSRDNAPRTIFIISMYKDSQPRGMAVTISVKSEKISTLSSENKIISFKEMNPPDNIKDTKSDIIFFQRSVPGHDNKMQFESSSYEGYFLASEKERDLFKLILKKEDELGDRSIMFTVQNED",0.115

# Target: T1, IL-18 receptor (IL-18Rαβ) on cells
# Experiment: cell-based or functional assay
# Remark: another data set of the same source
row,Binder,"EC50 (pM), HEK-Blue IL-18R reporter assay [pM]"
1,"C141 (SEQ ID NO: 82; N-terminal G, E6K, V11I, C38A, K53A, T63A, C76A, C127A) (ligand) GYFGKLKSKLSIIRNLNDQVLFIDQGNRPLFEDMTDSDARDNAPRTIFIISMYADSQPRGMAVAISVKCEKISTLSAENKIISFKEMNPPDNIKDTKSDIIFFQRSVPGHDNKMQFESSSYEGYFLAAEKERDLFKLILKKEDELGDRSIMFTVQNED",1.68
2,"C192 (SEQ ID NO: 81; N-terminal G, E6K, V11I, C38A, M51G, K53A, T63A, C76A, C127A) (ligand) GYFGKLKSKLSIIRNLNDQVLFIDQGNRPLFEDMTDSDARDNAPRTIFIISGYADSQPRGMAVAISVKCEKISTLSAENKIISFKEMNPPDNIKDTKSDIIFFQRSVPGHDNKMQFESSSYEGYFLAAEKERDLFKLILKKEDELGDRSIMFTVQNED",14
3,"IL-18 polypeptide SEQ ID NO: 56 (E6K, K53A, C38S, C76S, C127S) (ligand) YFGKLKSKLSVIRNLNDQVLFIDQGNRPLFEDMTDSDSRDNAPRTIFIISMYADSQPRGMAVTISVKCEKISTLSSENKIISFKEMNPPDNIKDTKSDIIFFQRSVPGHDNKMQFESSSYEGYFLASEKERDLFKLILKKEDELGDRSIMFTVQNED",3.73
4,"C179 (E6K, K8E, V11I, C38A, K53A, T63A, C76A, Q103R, C127A) (ligand) YFGKLKSELSIIRNLNDQVLFIDQGNRPLFEDMTDSDARDNAPRTIFIISMYADSQPRGMAVAISVKCEKISTLSAENKIISFKEMNPPDNIKDTKSDIIFFRRSVPGHDNKMQFESSSYEGYFLAAEKERDLFKLILKKEDELGDRSIMFTVQNED",0.4
5,"C142 (Y1M, E6K, V11I, C38A, K53A, T63A, C76A, C127A) (ligand) MFGKLKSKLSIIRNLNDQVLFIDQGNRPLFEDMTDSDARDNAPRTIFIISMYADSQPRGMAVAISVKCEKISTLSAENKIISFKEMNPPDNIKDTKSDIIFFQRSVPGHDNKMQFESSSYEGYFLAAEKERDLFKLILKKEDELGDRSIMFTVQNED",0.02
6,"C184 (E6R, V11I, C38A, K53A, T63A, C76A, C127A) (ligand) YFGKLRSKLSIIRNLNDQVLFIDQGNRPLFEDMTDSDARDNAPRTIFIISMYADSQPRGMAVAISVKCEKISTLSAENKIISFKEMNPPDNIKDTKSDIIFFQRSVPGHDNKMQFESSSYEGYFLAAEKERDLFKLILKKEDELGDRSIMFTVQNED",0.04
7,"C181 (E6K, V11I, C38A, K53A, T63A, C76A, C127A, V153E) (ligand) YFGKLKSKLSIIRNLNDQVLFIDQGNRPLFEDMTDSDARDNAPRTIFIISMYADSQPRGMAVAISVKCEKISTLSAENKIISFKEMNPPDNIKDTKSDIIFFQRSVPGHDNKMQFESSSYEGYFLAAEKERDLFKLILKKEDELGDRSIMFTEQNED",0.1
8,"C183 (SEQ ID NO: 80; E6K, V11I, C38A, M51G, K53A, T63A, C76A, C127A) (ligand) YFGKLKSKLSIIRNLNDQVLFIDQGNRPLFEDMTDSDARDNAPRTIFIISGYADSQPRGMAVAISVKCEKISTLSAENKIISFKEMNPPDNIKDTKSDIIFFQRSVPGHDNKMQFESSSYEGYFLAAEKERDLFKLILKKEDELGDRSIMFTVQNED",0.1
9,"C177 (E6K, V11I, C38A, I49R, K53A, T63A, C76A, C127A) (ligand) YFGKLKSKLSIIRNLNDQVLFIDQGNRPLFEDMTDSDARDNAPRTIFIRSMYADSQPRGMAVAISVKCEKISTLSAENKIISFKEMNPPDNIKDTKSDIIFFQRSVPGHDNKMQFESSSYEGYFLAAEKERDLFKLILKKEDELGDRSIMFTVQNED",0.04
10,"C182 (E6K, V11I, C38A, K53A, T63A, C76A, C127A, V153Y) (ligand) YFGKLKSKLSIIRNLNDQVLFIDQGNRPLFEDMTDSDARDNAPRTIFIISMYADSQPRGMAVAISVKCEKISTLSAENKIISFKEMNPPDNIKDTKSDIIFFQRSVPGHDNKMQFESSSYEGYFLAAEKERDLFKLILKKEDELGDRSIMFTYQNED",0.08
11,"C178 (E6K, V11I, C38A, K53A, T63A, C76A, Q103R, C127A) (ligand) YFGKLKSKLSIIRNLNDQVLFIDQGNRPLFEDMTDSDARDNAPRTIFIISMYADSQPRGMAVAISVKCEKISTLSAENKIISFKEMNPPDNIKDTKSDIIFFRRSVPGHDNKMQFESSSYEGYFLAAEKERDLFKLILKKEDELGDRSIMFTVQNED",0.26
12,"C176 (E6K, V11I, C38A, I49M, K53A, T63A, C76A, C127A) (ligand) YFGKLKSKLSIIRNLNDQVLFIDQGNRPLFEDMTDSDARDNAPRTIFIMSMYADSQPRGMAVAISVKCEKISTLSAENKIISFKEMNPPDNIKDTKSDIIFFQRSVPGHDNKMQFESSSYEGYFLAAEKERDLFKLILKKEDELGDRSIMFTVQNED",0.07
13,"C174 (K8L, E6K, V11I, C38A, K53A, T63A, C76A, C127A) (ligand) YFGKLKSLLSIIRNLNDQVLFIDQGNRPLFEDMTDSDARDNAPRTIFIISMYADSQPRGMAVAISVKCEKISTLSAENKIISFKEMNPPDNIKDTKSDIIFFQRSVPGHDNKMQFESSSYEGYFLAAEKERDLFKLILKKEDELGDRSIMFTVQNED",0.29
14,"C140 (SEQ ID NO: 83; N-terminal 4xG, E6K, V11I, C38A, K53A, T63A, C76A, C127A) (ligand) GGGGYFGKLKSKLSIIRNLNDQVLFIDQGNRPLFEDMTDSDARDNAPRTIFIISMYADSQPRGMAVAISVKCEKISTLSAENKIISFKEMNPPDNIKDTKSDIIFFQRSVPGHDNKMQFESSSYEGYFLAAEKERDLFKLILKKEDELGDRSIMFTVQNED",2.5
